In patent publication US20240279356A1 (Xencor, published 2024):
Changes are numbered by the printed parent chain. Blank lines part the entries; values can stand above or below the binder they belong to.

Tests used:
human MSLN antigen [1] = target: T1, human MSLN antigen (human, UniProt Q13421 296-580, limits assumed); assay: MSLN KD of the binding domain (Octet BLI, Example 2B(a)); quoted in Example 3B(a)
T1 construct: Soluble antigen for BLI; also called Mesothelin; MESO
Text: (§1) Variants of MESO-C were engineered by introducing point substitutions into the variable heavy region (VH) and the variable light region (VL) to generate 11 VH variants and 16 VL variants (sequences for which are depicted in FIG. 18 as H1.1-H1.13 and in FIG. 19 as L1.1-L1.18). An additional 4 VL variants were generated by combining useful point substitutions (sequences for which are depicted in FIG. 19 as L1.19-L1.22). WT and variant variable heavy regions were paired with WT and variant variable light regions to generate variant variable regions (Fvs) which were produced in the context of anti-MSLN×anti-CD3 bispecific antibodies. The bispecific antibodies were screened for MSLN binding affinity using Octet®, a BioLayer Interferometry (BLI)-based method. Experimental steps for Octet® generally include the following: Immobilization (capture of ligand to a biosensor); Association (dipping of ligand-coated biosensors into wells containing the analyte); and Dissociation (returning of biosensors to well containing buffer). In an initial screening, anti-human Fc sensors were used to capture the bispecific mAbs and dipped into human MSLN antigen (one concentration to screen large library). The resulting dissociation constant of illustrative variants (KD), association rate (kₐ), dissociation rate (kd), as well as sensorgram response are depicted in FIG. 20. In further screening of favorite variants identified in the initial screen (and combination variants), bispecific mAbs were dipped into multiple concentrations of human MSLN antigen, data for which are depicted in FIG. 21 (from various screens).

human MSLN antigen [2] = target: T1, human MSLN antigen; assay: Octet BLI on human MSLN antigen (Example 2B(a)); KD quoted in the FIG. 35 legend
Text: as §1

cyno MSLN [3] = target: T2, cyno MSLN (Macaca fascicularis (cynomolgus)); assay: Octet BLI, several concentrations; lower table, column head only 'cyno MSLN (M)'
T2 construct: soluble antigen for Octet; also called cynomolgus MSLN

human MSLN antigen [4] = target: T1, human MSLN antigen; assay: Octet BLI; bsAb on anti-human Fc sensor, human MSLN as analyte, one concentration
Text: as §1

cyno MSLN [5] = target: T2, cyno MSLN; assay: Octet BLI; bsAb on anti-human Fc sensor, cyno MSLN as analyte, one concentration
human MSLN antigen [6] = target: T1, human MSLN antigen; assay: MSLN binding affinity (Octet BLI, Example 2B(a)); quoted in the RTCC example

T1 sequence (Q13421 other isoform, or with tags, fused parts or gaps limits assumed): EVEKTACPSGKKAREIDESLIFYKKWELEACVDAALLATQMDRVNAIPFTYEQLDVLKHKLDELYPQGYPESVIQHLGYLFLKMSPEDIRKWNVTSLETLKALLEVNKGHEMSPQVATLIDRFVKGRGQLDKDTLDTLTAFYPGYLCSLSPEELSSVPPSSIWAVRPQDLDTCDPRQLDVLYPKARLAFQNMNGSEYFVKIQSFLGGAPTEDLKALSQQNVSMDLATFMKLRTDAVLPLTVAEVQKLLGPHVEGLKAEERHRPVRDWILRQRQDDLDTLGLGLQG

B1: MESO-C[MSLN]_H1_L1.9 (Fab, V domains shown)
VH: QVQLVQSGAEVKKPGASVKVSCKASGYTFTSYWMHWVRQAPGQGLEWMGMIHPNSDNTIYYEKFQGRVTMTVDKSISTAYMELSRLRSDDTAVYYCAIIITPVVPKFDYWGQGTLVTVSS
VL: DIVMTQSPDSLAVSLGERATINCKASHDVGTSVAWYQQKPGQSPKLLIYWASTRHTGVPDRFTGSGSGTDFTLTISSLQAEDVAVYFCQQYYSYPLTFGAGTKLEIK
notes: It was tested as the Fab arm(s) of anti-MSLN x anti-CD3 bsAbs
- Kd (human MSLN antigen [1]): 3.9 nM

B2: MESO-C[MSLN]_H1.12_L1.9 (Fab, V domains shown)
VH: B1 VH with E62Q
VL: B1 VL
notes: as for B1
- Kd (human MSLN antigen [1]): 10.2 nM

B3: MESO-C[MSLN]_H1.3_L1 (Fab, V domains shown)
VH: B1 VH with M50W
VL: B1 VL with Y92S
notes: as for B1
- Kd (human MSLN antigen [1]): 9.2 nM

B4: MESO-C[MSLN]_H1_L1.5 (Fab, V domains shown)
VH: B1 VH
VL: B1 VL with S32Y, Y92S
notes: as for B1
- Kd (human MSLN antigen [1]): ~12.8 nM

Continued, values first:

- Kd (human MSLN antigen [2]): 9.2 nM
- Kd (cyno MSLN [3]): 10 nM
- Kd (human MSLN antigen [4]): 30 nM
- Response (human MSLN antigen [4]): 0.915
- koff (human MSLN antigen [4]): 0.0147 s⁻¹
- kon (human MSLN antigen [4]): 491000 M⁻¹ s⁻¹
- Kd (cyno MSLN [5]): 32.1 nM
- Response (cyno MSLN [5]): 0.827
- koff (cyno MSLN [5]): 0.0148 s⁻¹
- kon (cyno MSLN [5]): 459000 M⁻¹ s⁻¹
B5: XENP32552 (bispecific antibody)
heavy: QVQLVQSGAEVKKPGASVKVSCKASGYTFTSYWMHWVRQAPGQGLEWMGWIHPNSDNTIYYEKFQGRVTMTVDKSISTAYMELSRLRSDDTAVYYCAIIITPVVPKFDYWGQGTLVTVSSASTKGPSVFPLAPSSKSTSGGTAALGCLVKDYFPEPVTVSWNSGALTSGVHTFPAVLQSSGLYSLSSVVTVPSSSLGTQTYICNVNHKPSDTKVDKKVEPKSCDKTHTCPPCPAPPVAGPSVFLFPPKPKDTLMISRTPEVTCVVVDVKHEDPEVKFNWYVDGVEVHNAKTKPREEEYNSTYRVVSVLTVLHQDWLNGKEYKCKVSNKALPAPIEKTISKAKGQPREPQVYTLPPSREEMTKNQVSLTCDVSGFYPSDIAVEWESDGQPENNYKTTPPVLDSDGSFFLYSKLTVDKSRWEQGDVFSCSVMHEALHNHYTQKSLSLSPGK
scFv-Fc: not shown
light: DIVMTQSPDSLAVSLGERATINCKASHDVGTSVAWYQQKPGQSPKLLIYWASTRHTGVPDRFTGSGSGTDFTLTISSLQAEDVAVYFCQQYSSYPLTFGAGTKLEIKRTVAAPSVFIFPPSDEQLKSGTASVVCLLNNFYPREAKVQWKVDNALQSGNSQESVTEQDSKDSTYSLSSTLTLSKADYEKHKVYACEVTHQGLSSPVTKSFNRGEC
notes: 1+1 Fab-scFv-Fc

- Kd (human MSLN antigen [6]): 90.4 nM
B6: XENP33366 (bispecific antibody)
heavy: B5 heavy
Fab-scFv-Fc: QVQLVQSGAEVKKPGASVKVSCKASGYTFTSYWMHWVRQAPGQGLEWMGWIHPNSDNTIYYEKFQGRVTMTVDKSISTAYMELSRLRSDDTAVYYCAIIITPVVPKFDYWGQGTLVTVSSASTKGPSVFPLAPSSKSTSGGTAALGCLVKDYFPEPVTVSWNSGALTSGVHTFPAVLQSSGLYSLSSVVTVPSSSLGTQTYICNVNHKPSNTKVDKKVEPKSCGGGGSGGGGSQAVVTQEPSLTVSPGGTVTLTCGSSTGAVTTSNYANWVQQKPGKSPRGLIGGTNKRAPGVPARFSGSLLGGKAALTISGAQPEDEADYYCALWYSNHWVFGGGTKLTVLGKPGSGKPGSGKPGSGKPGSEVQLVESGGGLVQPGGSLRLSCAASGFTFSTYAMNWVRQAPGKGLEWVGRIRSKANNYATYYADSVKGRFTISRDDSKNTLYLQMNSLRAEDTAVYYCVRHGNFGDSYVSWFAYWGQGTLVTVSSGGGGSGGGGSKTHTCPPCPAPPVAGPSVFLFPPKPKDTLMISRTPEVTCVVVDVKHEDPEVKFNWYVDGVEVHNAKTKPREEQYNSTYRVVSVLTVLHQDWLNGKEYKCKVSNKALPAPIEKTISKAKGQPREPQVYTLPPSREQMTKNQVKLTCLVKGFYPSDIAVEWESNGQPENNYKTTPPVLDSDGSFFLYSKLTVDKSRWQQGNVFSCSVMHEALHNHYTQKSLSLSPGK
light: B5 light with T31Q
notes: 2+1 Fab2-scFv-Fc

- Kd (human MSLN antigen [2]): 3.9 nM
- Kd (cyno MSLN [3]): 6.7 nM
- Kd (human MSLN antigen [4]): 15.3 nM
- Response (human MSLN antigen [4]): 0.953
- koff (human MSLN antigen [4]): 0.00887 s⁻¹
- kon (human MSLN antigen [4]): 578000 M⁻¹ s⁻¹
- Kd (cyno MSLN [5]): 21.5 nM
- Response (cyno MSLN [5]): 0.822
- koff (cyno MSLN [5]): 0.013 s⁻¹
- kon (cyno MSLN [5]): 608000 M⁻¹ s⁻¹
B7: XENP32567 (bispecific antibody)
heavy: B5 heavy with W50M
scFv-Fc: not shown
light: B5 light with S92Y
notes: 1+1 Fab-scFv-Fc

- Kd (human MSLN antigen [6]): 246 nM
B8: XENP33367 (bispecific antibody)
heavy: B5 heavy
Fab-scFv-Fc: B6 Fab-scFv-Fc
light: B5 light with Y94F
notes: 2+1 Fab2-scFv-Fc
